Source: publication PMC8007570

B1: FAM 40-mer dsDNA (dsDNA)
DNA 1: GTGTTCGGACTCTGCCTCAAGACGGTAGTCAACGTGCTTG
DNA 2: CAAGCACGTTGACTACCGTCTTGAGGCAGAGTCCGAACAC

What was measured:
[1] = molecular target: Pf MRNBD Y199C (Pyrococcus furiosus, UniProt Q8U1N9;P58301 1-426;1-195+709-882, Y199C;internal_change); experiment: fluorescence polarization; 1 mM MnCl2, 0.1 mM EDTA, no ATP/Mg2+; FP: 25 nM DNA, 50 mM HEPES, 100 mM NaCl, 1 mM MnCl2, 0.1 mM EDTA, 1% glycerol, 1 mM TCEP, 0.1% PEG-6000, pH 7, 15 min room temperature; NMR at 50 C
[2] = molecular target: Pf MRNBD wild type (Mre11 + Rad50 NBD) (Pyrococcus furiosus, UniProt Q8U1N9;P58301 1-426;1-195+709-882, internal_change); experiment: as above

Row | Binder | Kd [1] | Kd [2]
1 | B1 | 2500 nM | 2000 nM
2 | GTGTTCGGACTCTGCCTCAAGACGGTAGTCAACGTGCTTG (ssDNA) [FAM 40-mer ssDNA] | 350 nM | 310 nM
